Source: patent publication US20190202914A1 (HARBOUR BIOMED SHANGHAI, published 2019)
Substitutions are numbered along the chain they refer to. Numbers in names are those of the source. Values belong to the binder of their own block, whether it stands above or below them.

Tests used:
[1] = molecular target: T1, human CTLA-4 expressed on cells (293-hCTLA-4 cells; CTLA-4-expressing CHO-K1 cells) (human, UniProt P16410 36-223); assay: flow cytometry (MFI) on 293 cells expressing human CTLA-4, Alexa 488 anti-human (H+L) detection
T1 construct: also called CD152; cell-expressed CTLA-4
T1 sequence: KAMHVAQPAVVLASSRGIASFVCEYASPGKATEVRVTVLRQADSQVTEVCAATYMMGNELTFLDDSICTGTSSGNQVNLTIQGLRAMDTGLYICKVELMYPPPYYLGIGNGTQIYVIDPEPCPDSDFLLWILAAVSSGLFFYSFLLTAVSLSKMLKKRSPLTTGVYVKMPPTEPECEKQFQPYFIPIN
Description: (§1) The culture medium was aspirated, and the cells were washed twice with HBSS (Hanks Balanced Salt Solution, Invitrogen). The cells were treated with enzyme-free cell dissociation solution (Versene solution, Invitrogen) and collected. The cells were then washed twice with HBSS, cell counts were determined, and cells were resuspended with HBSS at 2×10⁶ cells/mL. BSA was added to the cell suspension to a final concentration of 1%, and the cells were blocked for 30 minutes on ice and then washed twice with HBSS. The cells were collected after centrifugation and resuspended in FACS buffer (HBSS+1% BSA, v/v) at 2×10⁶ cells/mL. 100 μL of the cell suspension were then added to each well of a 96-well plate. 100 μL of purified anti-CTLA-4 antibodies from Example 2 or control antibodies were added to each well of the 96-well plate and incubated for 1 hour on ice, wherein the heavy chain and light chain of the Ipilimumab analogue had amino acid sequences of SEQ ID NO.: 199 and SEQ ID NO.: 200, respectively. Cells were washed twice with FACS buffer, and 100 μL of Alexa 488-labeled anti-human (H+L) antibody (Invitrogen) were added to the 96-well plate and incubated for 1 hour on ice. The samples were washed three times with FACS buffer, and 100 μL of fixation buffer (containing 4% paraformaldehyde, v/v) were added to each well and incubated for 10 minutes. The cells were then washed twice with FACS buffer and resuspended in 100 μL of FACS buffer.

[2] = molecular target: T2, cyno CTLA-4 expressed on 293 cells (293-cynoCTLA-4 cells) (cyno, UniProt G7PL88 36-223); assay: flow cytometry (MFI) on 293 cells expressing cynomolgus CTLA-4, Alexa 488 anti-human (H+L) detection
T2 construct: also called cynomolgus CTLA-4
T2 sequence: T1 sequence with S14N, L106M
Description: as §1

[3] = molecular target: T1, human CTLA-4 expressed on cells …; assay: cell-based blocking assay, flow cytometry: % blocking of biotinylated B7.1 ECD-Fc binding to 293-hCTLA-4 cells
Description: Cell-Based Receptor-Ligand Binding assay was performed to determine the ability of the anti-CTLA-4 antibodies to block the binding of CTLA-4 to its ligands B7.1. Recombinant B7.1^ECD-Fc protein (B71-H5259, Acro Bio) was biotinylated using EZ-LINK NHS-PEG12-Biotin (Thermo Scientific#21312) according to the manufacturer's instruction. Biotinylated B7.1^ECD-Fc protein was concentrated and free label removed by using Amicon centrifugal filter (10 kDa cut off). The extracellular domain of B7.1 corresponded to amino acids Val35-Asn242 of Uniprot database protein P33681.
The culture medium was aspirated, and the cells were washed twice with PBS. The cells were treated with enzyme-free cell dissociation solution (Versene solution, Invitrogen) and collected. Dissociation solution was neutralized by the addition of 8 mL of culture medium, and cell counts were determined. Cells were centrifuged at 300 g for 5 minutes and resuspended in blocking buffer (containing 2% BSA, pH 7.4 PBS buffer, w/v) at 1×10⁶ cells/mL. The cells were blocked for 15 minutes at 37° C. Meanwhile, the wells of 96-well round-bottom plates were blocked with 200 μL of blocking buffer for 1 hour at 37° C. The blocking buffer was discarded, and 200 μL of cells were dispensed to each well of the 96-well plates (2×10⁵ cells/well). The plates were centrifuged at 500 g for 5 minutes, and the supernatants were discarded. The cells were resuspended in 100 μL of anti-CTLA-4 antibodies prepared in blocking buffer with varying concentrations. 100 μL of biotinylated B7.1 ECD-Fc (60 μg/mL in blocking buffer) were added to each well of 96-well plate and mixed by shaking gently. The plates were incubated at 4° C. for 90 minutes and washed twice with 200 μL blocking buffer. The blocking buffer was discarded, and the cells were resuspended in 100 μL of streptavidin-Alexa 488 solution (Invitrogen, 1:500 in blocking buffer) and incubated at 4° C. for 1 hour. The plates were washed three times with blocking buffer and added with 200 μL of blocking buffer.
The mean fluorescence intensity (MFI) was determined using FACS Calibur (BD).

[4] = molecular target: T1, human CTLA-4 expressed on cells …; assay: flow cytometry (MFI) on 293F-hCTLA-4 cells, Alexa 488 anti-human (H+L) detection
Description: Cell-based binding assay was performed to determine the binding ability of the anti-CTLA-4 antibody variants with PTM removal to human CTLA-4. The assay procedure was similar to that described in Example 3. […] Cells were centrifuged and blocked in blocking buffer (containing 2% BSA, pH 7.4 PBS buffer, w/v) at 1×10⁶ cells/mL for 15 minutes at 37° C. 200 μL of cells were dispensed to each well of the 96-well plates (2×10⁵ cells/well). The plates were centrifuged and the supernatants were discarded. The cells were resuspended in 100 μL of anti-CTLA-4 antibodies prepared in blocking buffer. The plates were incubated at 4° C. for 90 minutes and washed twice. After the blocking buffer was discarded, the cells were resuspended in 100 μL of Alexa 488-labeled anti-human (H+L) antibody (1:500, Invitrogen) and incubated at 4° C. for 1 hour. The cells were washed and resuspended in 200 μL of blocking buffer. The mean fluorescence intensity (MFI) was determined using FACS Calibur (BD).

[5] = molecular target: T1, human CTLA-4 expressed on cells …; assay: cell-based blocking assay, flow cytometry: % blocking of biotin labeled B7.1 binding to 293-hCTLA-4 cells
[6] = molecular target: T3, Recombinant human CTLA-4-his protein (CT4-H5229, Acro Bio) (human, UniProt P16410 36-161); assay: SPR, Biacore T200, antibody immobilised, CTLA-4-his injected, 1:1 model
T3 construct: extracellular domain; Bought protein; also called Human CTLA-4^ECD-his; not shown: his tag
T3 sequence (looked up): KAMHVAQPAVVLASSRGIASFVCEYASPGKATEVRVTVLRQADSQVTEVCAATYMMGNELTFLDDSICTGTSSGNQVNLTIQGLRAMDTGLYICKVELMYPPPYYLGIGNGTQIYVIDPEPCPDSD
Description: Dissociation constants were determined by Biacore T200 (GE Healthcare), following the specifications of the instrument provided by the manufacturer. Briefly, 1 μg/mL diluted anti-CTLA-4 antibodies in 10 mM NaOAc (pH 5.0, sigma) were immobilized on flow cell of a Series S CMS sensor chip. Remaining active ester groups were blocked with 1 M ethanolamine (pH 8.5). With HBS-EP+ as the running buffer, recombinant human CTLA-4-his (CT4-H5229, AcroBio) and cynoCTLA-4-his proteins (CT4-05227, AcroBio) with five serial diluted concentrations were injected over flow cells at 30 μL/min with the association time of 180 s. Buffer flow was maintained for dissociation for 600s.

[7] = molecular target: T1, human CTLA-4 expressed on cells …; assay: flow cytometry on 293F-hCTLA-4 cells

EC50 (read off the curve) [1]: ~2 nM | EC50 (read off the curve) [2]: ~1 nM
B1: CL3 (antibody, human IgG1, V domains shown)
VH: EVQLVEIGGGEIQPGGSLRLSCAASGFNVSKNYMSWVRQAPGKGLEWVSVIYSGGGTEYAASVKGRFNISRDSSKNMLYLQMNNLRAEDTAVYYCARAVPRPHGTDIWGQGTMVTVSS
notes: Human heavy-chain-only antibody (HCAb): two heavy chains, no light chain

EC50 (read off the curve) [1]: ~2 nM | EC50 (read off the curve) [2]: ~1 nM | IC50 (read off the curve) [3]: ~10 nM
B2: CL30 (antibody, human IgG1, V domains shown)
VH: EVQLEETGGDLIQPGGSLRLSCTASGFNVSRIYMSWVRQAPGKGLEWVSVIYSGGSIYYADSVRGRFTISRDSSTNTVYLQMNSLRAEDSAVYYCARAVPHAPSNFDKWGQGTRVTVSS
notes: Human heavy-chain-only antibody (HCAb): two heavy chains, no light chain; also called clone 30

EC50 (read off the curve) [4]: ~1 nM | IC50 (read off the curve) [5]: ~7 nM
B3: CL5-dPTM′ (antibody, human IgG1, V domains shown)
VH: EVQLVESGGGLIQPGGSLRLSCAVSGFTVSKNYMSWVRQAPGKGLEWVSVVYSGGSKTYADSVKGRFTISRDNSKNTLYLQMNSLRAEDTAVYYCARAVPHSPSSFDIWGQGTMVTVSS
notes: HCAb variant with PTM removal

Kd [6]: 0.0428 nM | koff [6]: 0.000229 s⁻¹ | kon [6]: 5.35e+06 M⁻¹ s⁻¹
B4: CL5′-dPTM′ (antibody, human IgG1, V domains shown)
VH: B3 VH
notes: HCAb variant with PTM removal

EC50 (read off the curve) [4]: ~1 nM | IC50 (read off the curve) [5]: ~7 nM
B5: CL5-dPTM (antibody, human IgG1, V domains shown)
VH: B3 VH with V5A, S7T, A40V, S49A, T68I, I69L, K75D, S84N
notes: HCAb variant with PTM removal

EC50 (read off the curve) [4]: ~1 nM | IC50 (read off the curve) [5]: ~7 nM
B6: CL25-dPTM′ (antibody, human IgG1, V domains shown)
VH: B3 VH with V24A, K31S, V51I, K57T, T58Y, S105A, I108R, M114L
notes: HCAb variant with PTM removal

EC50 (read off the curve) [1]: ~2 nM | EC50 (read off the curve) [2]: ~1 nM | IC50 (read off the curve) [3]: ~10 nM
B7: CL5 (antibody, human IgG1, V domains shown)
VH: B3 VH with V5A, S7T, T28N, A40V, S49A, T68I, I69L, K75D, S84N
notes: Human heavy-chain-only antibody (HCAb): two heavy chains, no light chain; also called HCAb clone 5

binding result [7]: binds
B8: CL22-dPTM′ (antibody, human IgG1, V domains shown)
VH: B3 VH with V24A, S30R, K31N, V51I, K57I, S102A, S105A
notes: HCAb variant with PTM removal

EC50 (read off the curve) [1]: ~2 nM | EC50 (read off the curve) [2]: ~1 nM
B9: CL25 (antibody, human IgG1, V domains shown)
VH: EVQLVETGGGLIQPGGSLRLSCAASGFTVSSNYMSWVRQAPGKGLEWVSVIYSGGSTYYADSVKGRFTISRDNSKNTLYLQMSNLTAEDTAVYYCARAVPHSPSAFDRWGQGTLVTVSS
notes: Human heavy-chain-only antibody (HCAb): two heavy chains, no light chain; also called clone25

EC50 (read off the curve) [4]: ~1 nM | IC50 (read off the curve) [5]: ~7 nM
B10: CL11-dPTM′ (antibody, human IgG1, V domains shown)
VH: B3 VH with V24A, K31R, N32I, V51I, K57I, T58Y, N73S, L78V, H101S, S102A
notes: HCAb variant with PTM removal

EC50 (read off the curve) [4]: ~1 nM | IC50 (read off the curve) [5]: ~7 nM
B11: CL25-dPTM (antibody, human IgG1, V domains shown)
VH: B9 VH with N84S, T86R
notes: HCAb variant with PTM removal

binding result [7]: binds
B12: CL30-dPTM′ (antibody, human IgG1, V domains shown)
VH: B2 VH with E5V, T7S, D10G, T23A, N28T, R64K, T75K, S90T, R114L
notes: HCAb variant with PTM removal

EC50 (read off the curve) [4]: ~1 nM | IC50 (read off the curve) [5]: ~7 nM
B13: CL22-dPTM (antibody, human IgG1, V domains shown)
VH: EVQLVETGGGLIQPGGSLRLSCAVSGFTVRNNYMSWARQVPGKGLEWVSVIYSGGSITYADSVKGRFIISRDNSKNTLYLQMNGLRAEDTAVYYCARAVPHAPSAFDIWGQGTMVTVSS
notes: HCAb variant with PTM removal

Kd [6]: 0.014 nM | koff [6]: 7.58e-05 s⁻¹ | kon [6]: 5.4e+06 M⁻¹ s⁻¹
B14: CL5′-eA-dPTM′ (antibody, human IgG1, V domains shown)
VH: B3 VH
notes: HCAb variant with PTM removal and the eA (S239D, I332E) Fc

EC50 (read off the curve) [1]: ~2 nM | EC50 (read off the curve) [2]: ~1 nM | IC50 (read off the curve) [3]: ~10 nM
B15: CL22 (antibody, human IgG1, V domains shown)
VH: B13 VH with K75N
notes: Human heavy-chain-only antibody (HCAb): two heavy chains, no light chain; also called clone 22
